Measurements published in the supplement of paper PMC9732359.
± gives the uncertainty stated by the source.

Assay: protein stability index of a GFP-peptide fusion (yeast GPS) (PSI 1-4); higher = more stable; sorted into four equal gates, so the index is relative within each strain
In short: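 Each library plasmid carries Cherry plus GFP with a tiled 17-residue yeast protein peptide fused downstream, and the pooled library was carried in yeast. Mid-log cultures in leucine-free medium were sorted into four equal gates by GFP/Cherry ratio. Reads from Illumina sequencing of PCR-amplified plasmids from each gate were assigned to strains by barcodes. Per peptide, the protein stability index was computed as the summed products of gate read frequency and gate number.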

Sequence	protein stability index (doa10∆)	protein stability index (pdr5∆)	protein stability index (san1∆)	protein stability index (ubr1∆)
FRLIDTGALINNLEPRQ [RPN11]	2.81 ± 0.23	3.18 ± 0.24		
NNGLPMKNKAETTTEED [ITC1]	2.35 ± 0.29	3.18 ± 0.1	2.94 ± 0.092	3.03 ± 0.12
EAMLRENIEVILSNGRM [SNF12]	2.79 ± 0.063	2.82 ± 0.061	2.86 ± 0.046	2.75 ± 0.059
ETSSFGSMFSGDNTSDV [RRI1]	3.48 ± 0.11	3.08 ± 0.13	3.25 ± 0.063	2.66 ± 0.15
FKDVEHISFNFSMLQMA [BRR2]	1.76 ± 0.076	1.59 ± 0.056	2.33 ± 0.15	2.03 ± 0.049
ENIIQRLQAANSMEYTG [CDC53]	1.94 ± 0.065	2.32 ± 0.11	2.25 ± 0.18	1.9 ± 0.095
VDNSPTTESNSRLKALN [YLR335W/NUP2]	3.18 ± 0.07	3.12 ± 0.057	3.11 ± 0.058	2.97 ± 0.059
PEQYSDILLNERVWNIC [AAR2]	3.38 ± 0.12	3.23 ± 0.22	2.68 ± 0.18	2.99 ± 0.18
VERIQKMIEKIEKMSTI [YIL149C/MLP2]	3.13 ± 0.29	3.41 ± 0.14	2.81 ± 0.19	
ELDQEYRSCETQDESEI [SMC4]	3.11 ± 0.12	3.24 ± 0.21	2.67 ± 0.19	3.31 ± 0.091
FPPGVIGIDEGSDEAYV [RPC40]	3.59 ± 0.091	3.41 ± 0.085	3.29 ± 0.077	3.51 ± 0.056
PKFISEALAFTSLVANE [YDL116W/NUP84]	1.23 ± 0.067	1.38 ± 0.078	1.31 ± 0.15	1.11 ± 0.17
KMVKAWNLNQFQIEADF [ASC1]	2.58 ± 0.046	2.67 ± 0.053	2.58 ± 0.067	2.55 ± 0.04
ESLSEEHASLLVRDSKP [MED8]	2.53 ± 0.084	3.04 ± 0.12	2.69 ± 0.086	2.59 ± 0.099
LHVLVAHKLKKSLDSIP [FAS2]	2.31 ± 0.091	2.1 ± 0.088	1.83 ± 0.24	1.68 ± 0.073
VSNNVLRRLEILVPDLY [ECM29]	2.31 ± 0.1	1.84 ± 0.083	1.56 ± 0.11	1.65 ± 0.073
RAPIYHSKFRSSSGNTW [YML031W/NDC1]	2.43 ± 0.11	2.34 ± 0.06	3.15 ± 0.084	2.59 ± 0.06
RNESLKNNSSIRNVIMS [SRB8]	1.81 ± 0.035	2.11 ± 0.049	1.87 ± 0.084	2.09 ± 0.039
NSLAVRGKDCTVVISQK [SCL1]	2.64 ± 0.075	2.9 ± 0.062	2.94 ± 0.051	2.72 ± 0.045
SVIVDSKVTVPPSKHST [ESC2]	2.75 ± 0.11	2.93 ± 0.089	2.72 ± 0.092	2.81 ± 0.049
YQNRSTRSQFCLNTQRG [RRI1]	2.8 ± 0.054	3.09 ± 0.063	3.1 ± 0.046	2.97 ± 0.034
FPNGFKNFENGPKKNVF [RPC34]	3.26 ± 0.083	3.27 ± 0.082	3.21 ± 0.062	3.44 ± 0.045
PSCNNMLLITSGDSGVY [RPC11]	1.32 ± 0.077	1.55 ± 0.22		2.24 ± 0.17
MSNTLFDDIFQVSEVDP [RPB8]	3.02 ± 0.084	2.77 ± 0.098	2.85 ± 0.1	3.08 ± 0.054
DFDESLKYLDDLKAQFQ [RPN9]	3.02 ± 0.15	3.17 ± 0.075	3.12 ± 0.098	3.11 ± 0.081

Sequence	protein stability index (doa10∆)	protein stability index (pdr5∆)	protein stability index (san1∆)	protein stability index (ubr1∆)
ASRHGQKGTIGITYRRE [RPB2]	2.53 ± 0.08	1.84 ± 0.051	2.39 ± 0.082	2.22 ± 0.051
KQEIREAVELPLVQADL [RPT3]	3.2 ± 0.13	2.81 ± 0.22	3.43 ± 0.12	2.96 ± 0.17
PAEHPFISAARYKPKSH [RPC37]	2.99 ± 0.1	3.04 ± 0.082	2.66 ± 0.064	3.13 ± 0.066
SKNRIIVEADEKKGIVQ [RET1]	1.21 ± 0.14	1.47 ± 0.061		1.59 ± 0.077
LLINTNFNKFFKIWHGE [PCI8]	1.37 ± 0.04	1.38 ± 0.04	1.57 ± 0.061	1.37 ± 0.044
KRVTIQKKDIKLARRLR [HHT1]	3.15 ± 0.14	2.87 ± 0.17		3.05 ± 0.088
RKEWFDIKAPSTFENRN [RPS1A]	1.95 ± 0.093	2.46 ± 0.07	1.77 ± 0.098	3.02 ± 0.06
ASKKFGKICLILTRLNG [SSN2]	1.99 ± 0.17	2.14 ± 0.27		
GSKQILKTEAANVLDPS [BRR2]	3.11 ± 0.075	2.99 ± 0.076	3 ± 0.056	3.19 ± 0.067
IPSLQNNIEENLRLLNS [ECM29]	3.13 ± 0.065	3.17 ± 0.061	3.34 ± 0.055	3.25 ± 0.061
RANLRKYREGQVLFQGL [POP1]	2.83 ± 0.095	2.31 ± 0.071	2.02 ± 0.088	2.96 ± 0.063
MFLYILKHLEEMGKLRE [RRI2]	3.11 ± 0.11	3.16 ± 0.11	3.04 ± 0.078	3.16 ± 0.051
LLSSSNFEATKKSVLKQ [COR1]	2.81 ± 0.29			2.83 ± 0.28
IHIQETQEFSKNYTTET [SIR3]	3.39 ± 0.1	3.15 ± 0.11	3.4 ± 0.16	3.31 ± 0.069
ANTSNNLFGATANANKP [YJL041W/NSP1]	3.32 ± 0.066	3.27 ± 0.044	3.24 ± 0.043	3.22 ± 0.045
SMRIQILRRQAILRQQQ [GAL11]	3.19 ± 0.29	2.98 ± 0.17	3.17 ± 0.19	
AFVKQKNDSLEKTINDL [YIL149C/MLP2]	3.1 ± 0.11	3.19 ± 0.11	3.02 ± 0.14	3.11 ± 0.12
LYRYRFDPFQAVSRSMT [ECM29]	2.57 ± 0.067	2.65 ± 0.049	2.76 ± 0.057	2.74 ± 0.043
NQTRKAHRNGIKKPKTY [RPL29]	2.65 ± 0.083	2.98 ± 0.072	2.92 ± 0.058	2.99 ± 0.063
NNFIVERVQSDENKDDE [SRP68]	3.52 ± 0.16	3.35 ± 0.1	2.77 ± 0.23	3.04 ± 0.098
KGVTEKDAVDYSKIPNI [RRP6]	3.24 ± 0.12	3.18 ± 0.092	3.25 ± 0.08	3.3 ± 0.069
KTEPVGTGLQSYLEERE [RPC53]	3.4 ± 0.25	3.24 ± 0.13	3.21 ± 0.12	3.2 ± 0.11
DRLILDLKLPPMDAYLK [SNU114]	3.5 ± 0.14	3.34 ± 0.11	3.01 ± 0.063	3.17 ± 0.063
MTVTFLILAGQVKVKGQ [YCS4]	2.34 ± 0.083	2.27 ± 0.074	2.3 ± 0.086	1.83 ± 0.057
SFKLCTLLIAIRGSNRD [YML103C/NUP188]	1.31 ± 0.048	1.78 ± 0.061	2.01 ± 0.077	2.41 ± 0.046

Sequence	protein stability index (doa10∆)	protein stability index (pdr5∆)	protein stability index (san1∆)	protein stability index (ubr1∆)
GYYVGYKATATGPKQQE [SCL1]	3.1 ± 0.12	3.2 ± 0.088	3.02 ± 0.12	3.25 ± 0.14
SWRNITNLSGGEKTLSS [SMC4]	3.37 ± 0.13	3.21 ± 0.078	2.81 ± 0.098	3.01 ± 0.11
AVVQTVKGLLNTYKRLV [YJL039C/NUP192]	1.8 ± 0.11	2.37 ± 0.085	1.92 ± 0.14	2.45 ± 0.083
NLAIVELVRLLIIDEIH [BRR2]	2.58 ± 0.069	2.38 ± 0.08	2.85 ± 0.088	2.36 ± 0.062
PSDWQRNSFIRDMIMKR [ITC1]	3.01 ± 0.072	3.03 ± 0.073	3.21 ± 0.055	2.89 ± 0.047
SKTLSLIQSYSLLDKPD [FAS1]	2.18 ± 0.078	2.01 ± 0.057	2.12 ± 0.21	2.14 ± 0.074
NNKITQLIAKNVANVSG [SIR3]	1.7 ± 0.067	1.88 ± 0.063	2.07 ± 0.094	2.35 ± 0.054
FDDACNQIWNIALNLAS [SSN2]	3.01 ± 0.15	2.88 ± 0.078	2.91 ± 0.2	2.62 ± 0.14
IQVLTEASSLGYLDDSE [IRR1]	1.3 ± 0.068	1.56 ± 0.057	1.76 ± 0.1	1.42 ± 0.055
SKRGNDKKHFNNKNKRV [RPC53]	3.17 ± 0.14	2.7 ± 0.11	3.09 ± 0.14	2.05 ± 0.09
KCKTRAQLTLKRCKHFE [RPL42A]	2.65 ± 0.088	2.58 ± 0.085	2.85 ± 0.064	2.68 ± 0.061
NDDIEWMLSICVEWRLP [YJR042W/NUP85]	1.64 ± 0.069	1.53 ± 0.036	1.83 ± 0.11	1.9 ± 0.058
NFNSSLHKRQQFSESTH [YJL039C/NUP192]	3.12 ± 0.12	3.14 ± 0.08	2.82 ± 0.063	3.03 ± 0.061
LAVIMDNIGEIDESLFN [YCG1]	3.08 ± 0.12	3.1 ± 0.064	3.13 ± 0.059	3 ± 0.12
HSNLEKISNSKLLSLLR [SIR4]	2.4 ± 0.063	2.65 ± 0.052	2.5 ± 0.051	2.48 ± 0.047
LLFKARLQQQQAQAQAQ [GAL11]	1.3 ± 0.081	1.59 ± 0.075	1.3 ± 0.14	1.5 ± 0.056
QKSSKENIENEEYVINL [ECM29]	3.02 ± 0.1	3.32 ± 0.086	2.75 ± 0.082	3.02 ± 0.082
SMENTPKVPVSAAATPS [GAL11]	2.07 ± 0.045	2.19 ± 0.049	2.24 ± 0.065	1.78 ± 0.036
LEHLHSTAFQNTPLSLP [COR1]	2.52 ± 0.039	2.66 ± 0.033	2.35 ± 0.035	2.65 ± 0.039
KFRSSILRKSFDFLMNM [RPN2]	2.1 ± 0.13	2.4 ± 0.1	2.04 ± 0.12	2.4 ± 0.072
GKHSIGLIWYLLAREVL [RPS0A]	1.59 ± 0.073	1.87 ± 0.064	1.65 ± 0.1	2.06 ± 0.054
VLQYSDWESDLHIHLNQ [YDL116W/NUP84]	2.48 ± 0.073	2.61 ± 0.065	2.75 ± 0.066	3.04 ± 0.081
GLLKRGDTVRILDTSQS [SNU114]	3.08 ± 0.084	3.21 ± 0.1	3.15 ± 0.054	2.86 ± 0.1
SVIQLCGGINDSIPYPQ [ECM29]	3.16 ± 0.17	2.59 ± 0.23	2.57 ± 0.13	2.88 ± 0.078
